Laboratory results as given in US20060121042A1 (AstraZeneca / MedImmune, published 2006).
Substitutions are numbered along the chain they refer to.

T1: hEph A1
T1 construct: also called human EphA1; not shown: Fc portion of the probable EphA1-Fc fusion (human IgG1 Fc)
T1 chain: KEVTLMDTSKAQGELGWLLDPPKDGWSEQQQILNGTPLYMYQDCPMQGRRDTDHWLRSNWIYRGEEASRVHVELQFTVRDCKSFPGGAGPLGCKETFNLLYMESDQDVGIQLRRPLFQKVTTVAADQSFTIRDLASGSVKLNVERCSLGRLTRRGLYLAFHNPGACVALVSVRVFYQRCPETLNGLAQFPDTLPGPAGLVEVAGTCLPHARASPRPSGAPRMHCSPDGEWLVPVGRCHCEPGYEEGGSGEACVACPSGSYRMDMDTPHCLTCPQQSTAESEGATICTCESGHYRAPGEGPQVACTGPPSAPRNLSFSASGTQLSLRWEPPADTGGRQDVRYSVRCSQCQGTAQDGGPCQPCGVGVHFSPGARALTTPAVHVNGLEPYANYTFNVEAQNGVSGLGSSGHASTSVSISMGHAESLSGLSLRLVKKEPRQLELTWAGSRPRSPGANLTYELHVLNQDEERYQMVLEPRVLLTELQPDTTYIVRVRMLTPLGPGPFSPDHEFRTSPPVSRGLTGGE

T2: mEph A6 (mouse, UniProt Q62413)
T2 sequence (receptor, looked up): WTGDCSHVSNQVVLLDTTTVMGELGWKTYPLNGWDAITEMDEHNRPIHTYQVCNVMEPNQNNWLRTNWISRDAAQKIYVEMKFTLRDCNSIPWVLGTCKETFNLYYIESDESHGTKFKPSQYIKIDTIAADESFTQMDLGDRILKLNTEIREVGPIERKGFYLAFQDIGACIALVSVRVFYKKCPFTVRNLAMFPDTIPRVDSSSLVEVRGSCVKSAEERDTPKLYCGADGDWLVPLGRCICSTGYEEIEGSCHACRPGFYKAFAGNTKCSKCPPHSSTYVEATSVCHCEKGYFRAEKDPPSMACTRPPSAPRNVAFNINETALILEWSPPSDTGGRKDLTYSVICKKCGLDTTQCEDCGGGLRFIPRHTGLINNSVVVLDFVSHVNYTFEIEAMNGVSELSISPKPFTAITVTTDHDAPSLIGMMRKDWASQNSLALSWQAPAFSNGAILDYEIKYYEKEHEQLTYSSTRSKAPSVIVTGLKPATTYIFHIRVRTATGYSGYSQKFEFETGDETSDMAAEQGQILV

T3: rrEphB1 (rat, UniProt P09759)
T3 sequence (receptor, looked up): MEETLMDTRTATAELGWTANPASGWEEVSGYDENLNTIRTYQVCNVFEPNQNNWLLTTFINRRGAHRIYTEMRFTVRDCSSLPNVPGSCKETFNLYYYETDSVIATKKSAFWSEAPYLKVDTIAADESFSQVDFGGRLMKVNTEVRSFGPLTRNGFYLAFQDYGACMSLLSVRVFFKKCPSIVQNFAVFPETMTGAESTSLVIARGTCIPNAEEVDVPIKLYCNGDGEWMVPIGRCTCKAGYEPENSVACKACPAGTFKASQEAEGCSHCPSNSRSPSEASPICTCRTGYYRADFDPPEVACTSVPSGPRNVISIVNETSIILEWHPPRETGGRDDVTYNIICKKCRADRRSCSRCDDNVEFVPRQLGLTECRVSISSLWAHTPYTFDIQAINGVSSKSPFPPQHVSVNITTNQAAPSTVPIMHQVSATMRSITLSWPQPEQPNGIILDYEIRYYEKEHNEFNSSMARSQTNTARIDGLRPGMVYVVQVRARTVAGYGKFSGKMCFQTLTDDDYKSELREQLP

T4: rmEph B2 (mouse, UniProt P54763)
T4 sequence (receptor, looked up): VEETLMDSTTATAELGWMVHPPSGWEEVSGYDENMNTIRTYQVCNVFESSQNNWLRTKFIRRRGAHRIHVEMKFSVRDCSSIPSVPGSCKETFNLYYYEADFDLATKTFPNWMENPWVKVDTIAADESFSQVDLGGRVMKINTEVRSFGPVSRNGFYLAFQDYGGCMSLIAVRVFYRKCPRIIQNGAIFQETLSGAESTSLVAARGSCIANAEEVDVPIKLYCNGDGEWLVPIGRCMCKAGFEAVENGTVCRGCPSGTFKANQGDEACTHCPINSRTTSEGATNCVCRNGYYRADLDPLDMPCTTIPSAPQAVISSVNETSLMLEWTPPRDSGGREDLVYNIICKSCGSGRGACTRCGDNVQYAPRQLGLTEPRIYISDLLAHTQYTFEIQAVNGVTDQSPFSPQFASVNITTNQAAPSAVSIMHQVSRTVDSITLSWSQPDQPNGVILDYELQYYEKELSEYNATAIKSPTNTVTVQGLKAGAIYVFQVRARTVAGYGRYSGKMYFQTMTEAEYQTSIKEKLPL

T5: rmEph B3 (mouse, UniProt P54754)
T5 sequence (receptor, looked up): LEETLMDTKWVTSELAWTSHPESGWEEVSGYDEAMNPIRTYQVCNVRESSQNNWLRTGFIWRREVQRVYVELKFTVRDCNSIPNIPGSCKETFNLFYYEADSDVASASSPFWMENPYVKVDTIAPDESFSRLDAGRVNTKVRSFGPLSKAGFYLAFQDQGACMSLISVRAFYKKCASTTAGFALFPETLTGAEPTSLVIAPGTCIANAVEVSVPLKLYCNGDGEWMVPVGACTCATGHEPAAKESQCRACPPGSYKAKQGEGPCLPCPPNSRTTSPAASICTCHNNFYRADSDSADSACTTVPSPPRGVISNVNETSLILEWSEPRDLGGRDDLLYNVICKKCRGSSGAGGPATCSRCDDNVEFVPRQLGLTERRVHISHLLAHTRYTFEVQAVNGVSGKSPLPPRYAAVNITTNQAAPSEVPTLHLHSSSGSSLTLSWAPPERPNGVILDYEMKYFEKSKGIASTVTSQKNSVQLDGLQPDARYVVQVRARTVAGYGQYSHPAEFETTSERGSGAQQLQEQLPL

T6: r murine EphA7 (mouse, UniProt Q61772)
T6 construct: recombinant Fc fusion (R&D Systems); also called rmuEphA7-Fc; mEphA7
T6 sequence (receptor-Fc fusion, looked up): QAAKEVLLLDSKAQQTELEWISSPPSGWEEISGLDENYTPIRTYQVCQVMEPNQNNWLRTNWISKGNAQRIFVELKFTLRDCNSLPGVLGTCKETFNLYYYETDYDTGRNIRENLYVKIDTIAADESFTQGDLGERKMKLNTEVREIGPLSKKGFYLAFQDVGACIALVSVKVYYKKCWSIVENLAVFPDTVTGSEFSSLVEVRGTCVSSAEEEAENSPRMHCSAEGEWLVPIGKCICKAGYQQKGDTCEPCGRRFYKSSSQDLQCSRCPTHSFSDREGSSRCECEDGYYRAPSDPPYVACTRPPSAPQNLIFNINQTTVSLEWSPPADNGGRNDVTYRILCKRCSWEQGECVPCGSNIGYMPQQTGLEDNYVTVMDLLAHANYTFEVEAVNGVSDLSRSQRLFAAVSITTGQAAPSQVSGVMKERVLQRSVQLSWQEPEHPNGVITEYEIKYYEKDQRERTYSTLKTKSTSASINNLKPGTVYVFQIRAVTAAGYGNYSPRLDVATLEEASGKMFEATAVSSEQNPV

T7: r murine EphA8 (mouse, UniProt O09127)
T7 construct: recombinant (rEphA8, R&D Systems); also called rEphA8
T7 sequence (receptor, looked up): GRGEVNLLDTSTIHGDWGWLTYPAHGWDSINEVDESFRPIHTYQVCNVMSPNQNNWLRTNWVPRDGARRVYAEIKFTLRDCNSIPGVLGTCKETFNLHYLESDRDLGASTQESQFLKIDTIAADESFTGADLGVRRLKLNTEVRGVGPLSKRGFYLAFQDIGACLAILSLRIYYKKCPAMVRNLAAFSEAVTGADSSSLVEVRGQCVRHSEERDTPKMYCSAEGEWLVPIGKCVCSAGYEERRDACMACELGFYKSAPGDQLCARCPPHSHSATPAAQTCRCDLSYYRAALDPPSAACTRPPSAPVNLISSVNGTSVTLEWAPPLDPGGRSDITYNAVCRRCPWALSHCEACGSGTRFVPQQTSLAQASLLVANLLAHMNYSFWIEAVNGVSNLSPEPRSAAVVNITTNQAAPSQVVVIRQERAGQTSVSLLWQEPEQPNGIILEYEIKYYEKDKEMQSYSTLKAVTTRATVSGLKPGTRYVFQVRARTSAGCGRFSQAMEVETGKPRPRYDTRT

T8: r murine EphA8 (mouse, UniProt O09127)
T8 construct: recombinant soluble protein coated on the plate; also called mEphA8; rEphA8
T8 sequence (receptor construct, looked up): T7 sequence (receptor, looked up)

B1: GEA44 11H1 (antibody, V domains shown)
VH: QVQLLQSGAEVKKPGASVKVPCKASGYTFTSYAMSWVRQAPGQGLEWMGWINTNTGNPTYAQGFTGRFVFSLDTSVSTAYLQISSLKAEDTAVYYCARVRLTVYGDGMDVWGQGTLVTVSS
VL: EIVLTQSPATLSVSPGERATLSCRASQSVSSNLAWYQQKPGQAPRLLIYGASTRATGIPDRFSASGSGTDFTLTISRVEPEDFAVYYCQQYGSSWTFGQGTKVEIK
notes: same variable regions as m16
B2: 3A12 Fab (affinity optimized combinatorial variant of Fab20) (Fab, V domains shown)
VH: B1 VH with Y32R, L101F
VL: B1 VL with R54W, S93P

Legend:
[1] = target: T1, hEph A1; assay: ELISA
[2] = target: mEph A4 (mouse, UniProt Q03137); assay: ELISA
mEph A4, sequence (Q03137 20-547 limits assumed): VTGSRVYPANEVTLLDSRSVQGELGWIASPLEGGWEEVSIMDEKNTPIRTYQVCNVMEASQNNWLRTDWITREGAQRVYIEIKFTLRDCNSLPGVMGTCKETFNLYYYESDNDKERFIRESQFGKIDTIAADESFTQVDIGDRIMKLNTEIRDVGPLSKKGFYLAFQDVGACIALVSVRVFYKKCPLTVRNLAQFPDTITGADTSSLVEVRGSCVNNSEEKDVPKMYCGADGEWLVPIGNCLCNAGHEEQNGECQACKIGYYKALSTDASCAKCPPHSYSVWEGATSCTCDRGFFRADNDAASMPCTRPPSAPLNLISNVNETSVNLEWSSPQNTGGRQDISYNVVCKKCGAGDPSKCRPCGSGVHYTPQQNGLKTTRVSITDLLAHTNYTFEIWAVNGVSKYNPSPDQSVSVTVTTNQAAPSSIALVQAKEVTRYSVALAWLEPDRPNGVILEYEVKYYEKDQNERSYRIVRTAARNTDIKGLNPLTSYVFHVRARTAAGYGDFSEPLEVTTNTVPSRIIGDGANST

[3] = target: rEph A5 (rat, UniProt P54757); assay: ELISA
rEph A5, sequence (P54757 27-575 limits assumed): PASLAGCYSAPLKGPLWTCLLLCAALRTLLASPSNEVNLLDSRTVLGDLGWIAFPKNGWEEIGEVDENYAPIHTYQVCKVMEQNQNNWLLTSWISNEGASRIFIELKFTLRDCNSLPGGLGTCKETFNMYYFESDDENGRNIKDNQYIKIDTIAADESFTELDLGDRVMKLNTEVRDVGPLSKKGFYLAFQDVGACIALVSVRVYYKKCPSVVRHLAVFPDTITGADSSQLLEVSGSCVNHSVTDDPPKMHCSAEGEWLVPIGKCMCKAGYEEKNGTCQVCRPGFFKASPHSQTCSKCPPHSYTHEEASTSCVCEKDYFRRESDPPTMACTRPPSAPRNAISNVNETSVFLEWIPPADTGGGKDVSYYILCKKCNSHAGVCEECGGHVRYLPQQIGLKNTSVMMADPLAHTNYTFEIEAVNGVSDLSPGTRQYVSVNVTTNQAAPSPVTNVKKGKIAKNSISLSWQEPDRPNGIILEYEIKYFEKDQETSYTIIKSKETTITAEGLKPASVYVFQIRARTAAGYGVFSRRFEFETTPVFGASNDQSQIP

[4] = target: T2, mEph A6; assay: ELISA
[5] = target: T9, human EphA4 (construct not given) (human, UniProt P54764 20-547, limits assumed); assay: ELISA
T9 construct: also called EphA4 receptor
T9 sequence (P54764 20-547 limits assumed): as the sequence (Q03137 20-547 limits assumed) above, with A59P, S121N, G124V, Q250R, N251S, S270T, R378K, S406N counted along it

[6] = target: T3, rrEphB1; assay: ELISA
[7] = target: T4, rmEph B2; assay: ELISA
[8] = target: T5, rmEph B3; assay: ELISA
[9] = target: T10, r murine EphA4 (mouse, UniProt Q03137); assay: activity ELISA, Fab on coated antigen
T10 construct: recombinant Fc fusion (R&D Systems); also called rmuEphA4-Fc; mEphA4
T10 sequence (Q03137 20-547 limits assumed): as the sequence (Q03137 20-547 limits assumed) above
Procedure: (§1) More precisely, Nunc Maxisorp plates were coated with the following rEphA proteins: rhuEphAl-Fc, rmuEphA2-Fc, rmuEphA3-Fc, rmuEphA4-Fc, rratEphA5-Fc, rmuEphA6-Fc, rmuEphA7-Fc, rEphA8; all at 0.5 μg/well (all R&D Systems) rhuEphA2-Fc; 0.5 μg/well, and rhuEphA4-His; 0.1 μg/well (both produced at MedImmune, Inc.). Plates were blocked with 3% BSA+0.1% Tween20 for 2 h. […] Incubation with a goat anti-human kappa horseradish peroxydase (HRP) conjugate then followed. HRP activity was detected with TMB substrate and the reaction quenched with 0.2 M H₂SO₄. Plates were read at 450 nm. Data was analyzed by normalizing Fab concentrations to the corresponding activity data (see FIGS. 10B-10H).

[10] = target: T6, r murine EphA7; assay: activity ELISA, Fab on coated antigen
Procedure: as §1

[11] = target: T7, r murine EphA8; assay: activity ELISA, Fab on coated antigen
Procedure: as §1

[12] = target: T8, r murine EphA8; assay: Activity ELISA, receptor coated on the plate, periplasmic Fab, anti-human kappa-HRP, OD 450 nm

Binder	ELISA O.D. value [1]	ELISA O.D. value [2]	ELISA O.D. value [3]	ELISA O.D. value [4]	ELISA O.D. value [5]	binding result [6]	ELISA O.D. value [7]	binding result [8]	binding result [9]	binding result [10]	binding result [11]	binding result [12]
B1	0.784	0.358	0.717	1.43	0.887	binds	0.581	binds				
B2									binds	binds	binds	binds
